The target of this assay is SARS-CoV-2 S protein RBD (residues 319-541 of the S protein), soluble, with C-terminal Avitag and His tag (SARS-CoV-2, UniProt P0DTC2 319-541).

From patent publication US20240043506A1 (GARVAN INSTITUTE OF MEDICAL RESEARCH, published 2024) come the findings set out here.

Usually Kd stands for the equilibrium constant for the complex coming apart. Read a low Kd as a tighter complex.

B1: O4G1 (antibody, V domains shown)
VH: EVQLLESGGGLVQPGGSLRLSCAASGFRFDYEDMGWVRQAPGKGLEWVSSIDSHGASTYYADSVKGRFTISRDNSKNTLYLQMNSLRAEDTAVYYCAKYSHSVSYGPFDYWGQGTLVTVSS
VL: DIQMTQSPSSLSASVGDRVTITCRASQYIYDDLNWYQQKPGKAPKLLIYSASSLQSGVPSRFSGSGSGTDFTLTISSLQPEDFATYYCQQTNTYPQTFGQGTKVEIK
Turning to B1, the Kd was 19 nM.

B2: O4C12 (antibody, V domains shown)
VH: EVQLLESGGGLVQPGGSLRLSCAASGFRISDEDMGWVRQAPGKGLEWVSYIDNAGASTYYADSVKGRFTISRDNSKNTLYLQMNSLRAEDTAVYYCAKQINQGEGFDYWGQGTLVTVSS
VL: DIQMTQSPSSLSASVGDRVTITCRASQSISSYLNWYQQKPGKAPKLLIYYASNLQSGVPSRFSGSGSGTDFTLTISSLQPEDFATYYCQQGLGMPITFGQGTKVEIK
B2 returned a Kd of 23 nM.
